# Measurements: the supplement of paper PMC9732359
# ± gives the uncertainty stated by the source.
# Assay: protein stability index of a GFP-peptide fusion (yeast GPS) (PSI 1-4); higher = more stable; sorted into four equal gates, so the index is relative within each strain
# Method in brief: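 Sequencing reads from sorted gates were used to score each peptide. The library consisted of tiled 17-residue yeast protein peptides fused downstream of GFP on a Cherry-expressing plasmid, pooled and carried in yeast. Mid-log cultures in leucine-free medium were split into four equal gates by GFP/Cherry ratio, and each gate's plasmids were PCR-amplified and Illumina-sequenced. The protein stability index adds up, over all gates, the read frequency multiplied by the gate number.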
Sequence,protein stability index (doa10∆),protein stability index (pdr5∆),protein stability index (san1∆),protein stability index (ubr1∆)
NLSEARLVIKEALVERR [RPB4],3.33 ± 0.28,2.75 ± 0.13,2.83 ± 0.21,3.3 ± 0.13
KLLTPQDMEAAKEVYKI [GAL11],3.13 ± 0.14,3.33 ± 0.14,3.43 ± 0.084,3.49 ± 0.11
KLKECPFDMGGYFIING [RPB2],3 ± 0.078,3.07 ± 0.082,2.72 ± 0.073,3.07 ± 0.051
LFQELSKVVDDMPSLRL [GRR1],3.2 ± 0.18,1.61 ± 0.11,2.22 ± 0.12,2.31 ± 0.085
SYNNTGISDDENDEEDI [RRP4],2.85 ± 0.11,3.27 ± 0.12,2.84 ± 0.086,2.96 ± 0.099
YKQAMNETSEQLVPIRL [SNF5],3.23 ± 0.16,3.12 ± 0.15,3.08 ± 0.22,3.43 ± 0.12
ASNGRNKKGRGHVKPVR [RPS26A],3.46 ± 0.075,3.35 ± 0.086,3.45 ± 0.082,3.3 ± 0.056
FQLIDMKDKEINIQKYN [CSI1],2.47 ± 0.17,1.98 ± 0.11,,2.57 ± 0.14
SKISFIDEDKLYPSFKP [SSN2],2.96 ± 0.14,2.8 ± 0.12,2.25 ± 0.087,2.54 ± 0.081
PANVLLVQSLNDMVLEL [NNF1],2.67 ± 0.18,2.68 ± 0.17,2.83 ± 0.13,2.94 ± 0.057
AKRIRVSHHATTFTHCE [RPB2],3.07 ± 0.07,3.15 ± 0.074,2.48 ± 0.09,2.88 ± 0.066
STTTSLHVPNLQPPKTS [SMC4],2.13 ± 0.036,2.33 ± 0.033,2.1 ± 0.046,1.93 ± 0.027
IIDAKTRNEQTTIQTEK [MCD1],3.19 ± 0.093,3.23 ± 0.082,2.91 ± 0.17,3.01 ± 0.06
EIMEERNVEQKLNELDE [NNF1],3.11 ± 0.08,2.94 ± 0.077,3.13 ± 0.052,3.27 ± 0.045
QGRRLGESIMSEEPTDF [MCD1],3.21 ± 0.11,3.36 ± 0.13,3.32 ± 0.069,3.23 ± 0.092
DDYKDLTCSLYELYINK [IRR1],2.74 ± 0.084,2.75 ± 0.12,3.16 ± 0.056,2.94 ± 0.079
ALEFLNTTLQDNVSFIE [REC8],2.95 ± 0.072,3.27 ± 0.12,3.05 ± 0.11,2.87 ± 0.072
TRVNAQLESYEYMVQYI [RRI1],3.2 ± 0.059,3.23 ± 0.073,3.42 ± 0.058,3.22 ± 0.076
KKFDISNDNLDLISEIL [MED1],2.77 ± 0.067,2.89 ± 0.058,2.84 ± 0.061,3 ± 0.049
SPTINRANVYVGFLVQL [PRP8],2.6 ± 0.065,1.89 ± 0.066,1.98 ± 0.1,2.1 ± 0.063

Sequence,protein stability index (doa10∆),protein stability index (pdr5∆),protein stability index (san1∆),protein stability index (ubr1∆)
TTDANGSKENYQELGSL [MED2],2.86 ± 0.097,3.09 ± 0.081,3.15 ± 0.049,2.9 ± 0.075
LKKLEKFMELERKTLER [SWI3],2.95 ± 0.061,2.84 ± 0.069,3.18 ± 0.046,2.66 ± 0.058
LKVLSGDEGYNEDMVRR [SNF12],3.48 ± 0.13,3.22 ± 0.13,3.25 ± 0.095,3.56 ± 0.15
RKRCKGTVGNSHKTTKE [RPL11A],2.94 ± 0.28,3 ± 0.17,2.99 ± 0.16,
DPNIKVNDTVKIDLASG [RPS4A],2.81 ± 0.079,2.75 ± 0.063,2.73 ± 0.087,2.41 ± 0.053
KQQDAEELFTQLFHSMS [UBP6],3.25 ± 0.059,3.31 ± 0.088,3.03 ± 0.088,3.14 ± 0.061
PFSLTYVRTEETDGKHG [YMR129W/POM152],3.13 ± 0.14,3.28 ± 0.096,3 ± 0.074,3.19 ± 0.069
EEIKQSARNYDKFKLNE [SMC1],3.25 ± 0.066,3.24 ± 0.073,3.16 ± 0.076,3.31 ± 0.046
PIKADKDYSQILKEEFP [RPN5],3 ± 0.1,2.46 ± 0.079,2.18 ± 0.13,2.69 ± 0.062
NKSRSSGHFSTDSRTGQ [CDC53],3.03 ± 0.054,3.05 ± 0.052,3.12 ± 0.041,3.14 ± 0.039
EKNEKEREIKRRKFDPS [UBP6],3.3 ± 0.05,3.25 ± 0.051,3.09 ± 0.044,3.25 ± 0.057
EKVILVQEQLSKNRIIV [RET1],1.63 ± 0.087,1.38 ± 0.084,1.5 ± 0.11,1.37 ± 0.052
KNHTHNLPGNITVVLGV [RRP4],2.3 ± 0.14,2.68 ± 0.084,2.32 ± 0.17,2.66 ± 0.078
TAKKTNRSAYDSKNTPN [YDL088C/ASM4],2.68 ± 0.089,2.78 ± 0.065,2.94 ± 0.052,2.9 ± 0.084
DVVEYLDKVINKELPIN [RPN8],2.82 ± 0.22,3 ± 0.2,,3.12 ± 0.19
SAVKPRPLKLERGFACI [FAS1],2.16 ± 0.092,2.36 ± 0.064,2.06 ± 0.082,2.42 ± 0.071
DVPAYNVTSFMPFWKFF [SRB8],1.62 ± 0.037,1.68 ± 0.04,1.5 ± 0.06,1.56 ± 0.031
NAGTEKEKESKKDSKPA [YLR335W/NUP2],3.31 ± 0.084,3.15 ± 0.074,3.54 ± 0.056,3.42 ± 0.05
TRGGASALIENNLFRII [YJL039C/NUP192],2.48 ± 0.048,2.41 ± 0.052,2.41 ± 0.052,2.7 ± 0.041
